Measurements as given in patent US6579698.

T1: Streptomyces Subtilisin Inhibitor (SSI), SSI-like protein produced by PG1181
T1 chain: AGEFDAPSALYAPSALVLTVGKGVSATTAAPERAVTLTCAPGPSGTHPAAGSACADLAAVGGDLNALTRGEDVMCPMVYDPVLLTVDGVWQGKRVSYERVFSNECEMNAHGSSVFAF


Assays:
[1] = target: T1, Streptomyces Subtilisin Inhibitor …
[2] = target: protease (not named in the Ki determination); assay: enzyme inhibition kinetics with succinyl-Ala-Ala-Pro-Phe-p-nitroanilide in 50 mM Tris pH 8; steady-state rate against the rate without inhibitor; equations of Goldstein

Row | Binder | protease activity (hydrolysis of N-succinyl-Ala-Ala-Pro-Phe-p-nitroanilide, increase in absorbance at 410 nm) [1] | Ki [2] [nM]
1 | subtilisin BPN′ (protein) AQSVPYGVSQIKAPALHSQGYTGSNVKVAVIDSGIDSSHPDLKVAGGASMVPSETNPFQDNNSHGTHVAGTVAALNNSIGVLGVAPSASLYAVKVLGADGSGQYSWIINGIEWAIANNMDVINMSLGGPSGSAALKAAVDKAVASGVVVVAAAGNEGTSGSSSTVGYPGKYPSVIAVGAVDSSNQRASFSSVGPELDVMAPGVSIQSTLPGNKYGAYNGTSMASPHVAGAAALILSKHPNWTNTQVRSSLENTTTKLGDSFYYGKGLINVQAAAQ | SSI inhibits subtilisin BPN′ and a Y217L variant of BPN′ | –
2 | Y217L variant of subtilisin BPN′ (protein) AQSVPYGVSQIKAPALHSQGYTGSNVKVAVIDSGIDSSHPDLKVAGGASMVPSETNPFQDNNSHGTHVAGTVAALNNSIGVLGVAPSASLYAVKVLGADGSGQYSWIINGIEWAIANNMDVINMSLGGPSGSAALKAAVDKAVASGVVVVAAAGNEGTSGSSSTVGYPGKYPSVIAVGAVDSSNQRASFSSVGPELDVMAPGVSIQSTLPGNKYGALNGTSMASPHVAGAAALILSKHPNWTNTQVRSSLENTTTKLGDSFYYGKGLINVQAAAQ | SSI inhibits subtilisin BPN′ and a Y217L variant of BPN′ | –
3 | M73P D83C SSI (protein) AGEFDAPSALYAPSALVLTVGKGVSATTAAPERAVTLTCAPGPSGTHPAAGSACADLAAVGGDLNALTRGEDVMCPPVYDPVLLTVCGVWQGKRVSYERVFSNECEMNAHGSSVFAF | – | 3
